{
  "source": "paper doi:10.1101/2025.08.04.668557",
  "key": {"[1]": {"tested_on": "Nsp1 N127 (6His-Nsp1(N127)) (SARS-CoV-2)", "assay": "MST", "conditions": "assay buffer not stated ([…]"}, "[2]": {"tested_on": "Nsp1 full-length (6His-Nsp1) (SARS-CoV-2)", "assay": "MST", "conditions": "assay buffer not stated ([…]"}},
  "data": [
    {"substance": "CoV2 5' UTR 1-50 RNA", "values": [
      {"measurement": "Kd", "setting": "[1]", "result": 77.8, "unit": "µM"},
      {"measurement": "Kd", "setting": "[2]", "result": 6.3, "unit": "µM"}
    ]},
    {"substance": "TIAR 5' UTR 1-50 RNA", "values": [
      {"measurement": "Kd", "setting": "[1]", "result": 112, "unit": "µM"},
      {"measurement": "Kd", "setting": "[2]", "result": 4.23, "unit": "µM"}
    ]}
  ]
}
